# T1: FcgRIIa H (human, UniProt P12318)
# T1 chain: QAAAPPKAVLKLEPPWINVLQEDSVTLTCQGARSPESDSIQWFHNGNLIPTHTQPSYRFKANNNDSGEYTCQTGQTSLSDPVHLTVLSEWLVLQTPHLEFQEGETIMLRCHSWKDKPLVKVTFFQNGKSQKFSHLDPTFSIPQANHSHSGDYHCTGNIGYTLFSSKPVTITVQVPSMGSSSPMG
# T2: FcgRIa (human, UniProt P12314)
# T2 chain: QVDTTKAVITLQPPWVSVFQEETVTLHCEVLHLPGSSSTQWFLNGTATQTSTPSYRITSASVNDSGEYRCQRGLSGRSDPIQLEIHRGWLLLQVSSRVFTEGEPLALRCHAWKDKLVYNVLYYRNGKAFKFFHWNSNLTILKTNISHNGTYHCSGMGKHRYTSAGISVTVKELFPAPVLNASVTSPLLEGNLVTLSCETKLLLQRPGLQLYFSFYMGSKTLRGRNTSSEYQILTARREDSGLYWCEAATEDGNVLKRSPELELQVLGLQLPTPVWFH
# T3: FcgRIIa R (human, UniProt P12318)
# T3 chain: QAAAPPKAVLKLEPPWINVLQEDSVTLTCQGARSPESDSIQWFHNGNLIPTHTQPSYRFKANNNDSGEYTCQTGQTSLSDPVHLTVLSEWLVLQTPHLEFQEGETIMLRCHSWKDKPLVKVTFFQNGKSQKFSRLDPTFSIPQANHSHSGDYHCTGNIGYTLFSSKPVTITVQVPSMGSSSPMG
# T4: FcgRIIb (human, UniProt P31994)
# T4 chain: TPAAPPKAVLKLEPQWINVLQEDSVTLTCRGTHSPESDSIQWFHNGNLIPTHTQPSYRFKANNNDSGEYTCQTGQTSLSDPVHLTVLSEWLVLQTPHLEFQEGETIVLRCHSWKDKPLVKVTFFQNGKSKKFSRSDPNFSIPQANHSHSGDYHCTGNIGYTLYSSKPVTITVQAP
# Experiments:
# Assay in all cases: SPR
# FcgRIIa H = target: T1, FcgRIIa H
# FcgRIa = target: T2, FcgRIa
# FcgRIIa R = target: T3, FcgRIIa R
# FcgRIIb = target: T4, FcgRIIb
# FcgRIIIa V = FcgRIIIa V (human, UniProt P08637)
# FcgRIIIa F = FcgRIIIa F (human, UniProt P08637)
# FcgRIIIa F, sequence (P08637 17-208): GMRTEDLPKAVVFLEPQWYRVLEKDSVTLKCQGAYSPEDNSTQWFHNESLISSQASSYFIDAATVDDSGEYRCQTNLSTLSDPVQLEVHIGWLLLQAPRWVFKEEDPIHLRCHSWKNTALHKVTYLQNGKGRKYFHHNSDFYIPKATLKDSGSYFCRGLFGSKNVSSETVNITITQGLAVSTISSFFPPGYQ
# FcgRIIIa V, sequence (P08637 17-208 F176V): as the sequence (P08637 17-208) above, with F160V counted along it
Kd (FcgRIIa H) [nM],Kd (FcgRIa) [nM],Kd (FcgRIIa R) [nM],Kd (FcgRIIb) [nM],Kd (FcgRIIIa V) [nM],Kd (FcgRIIIa F) [nM],Binder
21,< 0.028,15,210,1.8,8.2,H240-Kn120/H240-Hl073/L73-k0 (antibody) chain 1: QDQLVQSGAEVKKPGASVKVSCKASGFNIKDTYIQWVRQAPGQGLEWMGRIDPLRKQTKYREKFEGRVTITADTSTNTAYMELSSLRSEDTAVYYCVRSGREFDYWGQGTLVTVSSASTKGPSVFPLAPSSKSTSGGTAALGCLVKDYFPEPVTVSWNSGALTSGVHTFPAVLQSSGLYSLSSVVTVPSSSLGTQTYICNVNHKPSNTKVDKKVEPKSCDKTHTCPPCPAPEYYWGPMVFLFPPKPKDTLMISRTPEVTCVVVDVSDEDPEVKFNWYVDGVEVHNAKTKPREEQYNATYRVVSVLTVLHQDWLNGKEYKCKVSNKDLPAPIEKTISKAKGQPREPQVCTLPPSRDELTKNQVSLWCLVKGFYPSDIAVEWESNGQPENNYKTTPPVLDSDGSFFLYSKLTVDKSRWQQGNVFSCSVMHEALHNHYTQKSLSLSP chain 2: QDQLVQSGAEVKKPGASVKVSCKASGFNIKDTYIQWVRQAPGQGLEWMGRIDPLRKQTKYREKFEGRVTITADTSTNTAYMELSSLRSEDTAVYYCVRSGREFDYWGQGTLVTVSSASTKGPSVFPLAPSSKSTSGGTAALGCLVKDYFPEPVTVSWNSGALTSGVHTFPAVLQSSGLYSLSSVVTVPSSSLGTQTYICNVNHKPSNTKVDKKVEPKSCDKTHTCPPCPAPELLSGPSVFLFPPKPKDTLMISRTPEVTCVVVDVSHEEPEVKFNWYVDGVEVHNAKTKPREEQYNSTYRVVSVLTVLHQDWLNGKEYKCKVSNDALPKPIEETISKAKGQPREPQVYTLPPSRCELTKNQVSLSCAVKGFYPSDIAVEWESNGQPENNYKTTPPVLDSDGSFFLVSKLTVDKSRWQQGNVFSCSVMHEALHNHYTQKSLSLSP chain 3: DIQMTQSPSSLSASVGDRVTITCRASQDIHKYIAWYQQKPGQAPRLLIQYTSTLQPGVPSRFSGSGSGTDYTFTISSLQPEDIATYYCLQYEQLRTFGGGTKVEIKRTVAAPSVFIFPPSDEQLKSGTASVVCLLNNFYPREAKVQWKVDNALQSGNSQESVTEQDSKDSTYSLSSTLTLSKADYEKHKVYACEVTHQGLSSPVTKSFNRGEC
41,0.3,26,260,0.98,4.8,H240-Kn179/H240-Hl068/L73-k0 (antibody) chain 1: QDQLVQSGAEVKKPGASVKVSCKASGFNIKDTYIQWVRQAPGQGLEWMGRIDPLRKQTKYREKFEGRVTITADTSTNTAYMELSSLRSEDTAVYYCVRSGREFDYWGQGTLVTVSSASTKGPSVFPLAPSSKSTSGGTAALGCLVKDYFPEPVTVSWNSGALTSGVHTFPAVLQSSGLYSLSSVVTVPSSSLGTQTYICNVNHKPSNTKVDKKVEPKSCDKTHTCPPCPAPEYYWGPMVFLFPPKPKDTLMISRTPEVTCVVVDVSDEDPEVKFNWYVDGVEVHNAKTKPREKQYNATYRVVSVLTVLHQDWLNGKEYKCKVSNKDLPAPIEKTISKAKGQPREPQVCTLPPSRDELTKNQVSLWCLVKGFYPSDIAVEWESNGQPENNYKTTPPVLDSDGSFFLYSKLTVDKSRWQQGNVFSCSVMHEALHNHYTQKSLSLSP chain 2: QDQLVQSGAEVKKPGASVKVSCKASGFNIKDTYIQWVRQAPGQGLEWMGRIDPLRKQTKYREKFEGRVTITADTSTNTAYMELSSLRSEDTAVYYCVRSGREFDYWGQGTLVTVSSASTKGPSVFPLAPSSKSTSGGTAALGCLVKDYFPEPVTVSWNSGALTSGVHTFPAVLQSSGLYSLSSVVTVPSSSLGTQTYICNVNHKPSNTKVDKKVEPKSCDKTHTCPPCPAPELLGGPSVFLFPPKPKDTLMISRTPEVTCVVVDVSHEEPEVKFNWYVDGVEVHNAKTKPREEQYNSTYRVVSVLTVLHQDWLNGKEYKCKVSNDALPKPIEETISKAKGQPREPQVYTLPPSRCELTKNQVSLSCAVKGFYPSDIAVEWESNGQPENNYKTTPPVLDSDGSFFLVSKLTVDKSRWQQGNVFSCSVMHEALHNHYTQKSLSLSP chain 3: DIQMTQSPSSLSASVGDRVTITCRASQDIHKYIAWYQQKPGQAPRLLIQYTSTLQPGVPSRFSGSGSGTDYTFTISSLQPEDIATYYCLQYEQLRTFGGGTKVEIKRTVAAPSVFIFPPSDEQLKSGTASVVCLLNNFYPREAKVQWKVDNALQSGNSQESVTEQDSKDSTYSLSSTLTLSKADYEKHKVYACEVTHQGLSSPVTKSFNRGEC
46,87,19,390,6.2,23,H240-Kn120/H240-Hl085/L73-k0 (antibody) chain 1: QDQLVQSGAEVKKPGASVKVSCKASGFNIKDTYIQWVRQAPGQGLEWMGRIDPLRKQTKYREKFEGRVTITADTSTNTAYMELSSLRSEDTAVYYCVRSGREFDYWGQGTLVTVSSASTKGPSVFPLAPSSKSTSGGTAALGCLVKDYFPEPVTVSWNSGALTSGVHTFPAVLQSSGLYSLSSVVTVPSSSLGTQTYICNVNHKPSNTKVDKKVEPKSCDKTHTCPPCPAPEYYWGPMVFLFPPKPKDTLMISRTPEVTCVVVDVSDEDPEVKFNWYVDGVEVHNAKTKPREEQYNATYRVVSVLTVLHQDWLNGKEYKCKVSNKDLPAPIEKTISKAKGQPREPQVCTLPPSRDELTKNQVSLWCLVKGFYPSDIAVEWESNGQPENNYKTTPPVLDSDGSFFLYSKLTVDKSRWQQGNVFSCSVMHEALHNHYTQKSLSLSP chain 2: QDQLVQSGAEVKKPGASVKVSCKASGFNIKDTYIQWVRQAPGQGLEWMGRIDPLRKQTKYREKFEGRVTITADTSTNTAYMELSSLRSEDTAVYYCVRSGREFDYWGQGTLVTVSSASTKGPSVFPLAPSSKSTSGGTAALGCLVKDYFPEPVTVSWNSGALTSGVHTFPAVLQSSGLYSLSSVVTVPSSSLGTQTYICNVNHKPSNTKVDKKVEPKSCDKTHTCPPCPAPELLVGPSVFLFPPKPKDTLMISRTPEVTCVVVDVSHEEPEVKFNWYVDGVEVHNAKTKPREEQYNSTYRVVSVLTVLHQDWLNGKEYKCKVSNDALPKPIEETISKAKGQPREPQVYTLPPSRCELTKNQVSLSCAVKGFYPSDIAVEWESNGQPENNYKTTPPVLDSDGSFFLVSKLTVDKSRWQQGNVFSCSVMHEALHNHYTQKSLSLSP chain 3: DIQMTQSPSSLSASVGDRVTITCRASQDIHKYIAWYQQKPGQAPRLLIQYTSTLQPGVPSRFSGSGSGTDYTFTISSLQPEDIATYYCLQYEQLRTFGGGTKVEIKRTVAAPSVFIFPPSDEQLKSGTASVVCLLNNFYPREAKVQWKVDNALQSGNSQESVTEQDSKDSTYSLSSTLTLSKADYEKHKVYACEVTHQGLSSPVTKSFNRGEC

# From patent US10766960 (dated 2020)
